Biological target: histone H3 trimethylated at lysine 9 (H3K9me3) in chromatin of NIH-3T3 cells (UniProt P68433)

**Q.** For “TnH #3: 112aaCD (HP1α)-3×(TGS)-Tn5 (enzyme)”, which score: coefficient of the linear model for the difference between TnH and Tn5 enrichment (scGET-seq, NIH-3T3), region chrUn JH584304:0-114452, cell group 1 (G2/M) is on record?
**A.** Its score: coefficient of the linear model for the difference between TnH and Tn5 enrichment (scGET-seq, NIH-3T3), region chrUn JH584304:0-114452, cell group 1 (G2/M) is -0.133.

**Q.** What about the score: coefficient of the linear model for the difference between TnH and Tn5 enrichment (scGET-seq, NIH-3T3), region chrUn JH584304:0-114452, cell group 2 (G2/M) of the same substance?
**A.** The score: coefficient of the linear model for the difference between TnH and Tn5 enrichment (scGET-seq, NIH-3T3), region chrUn JH584304:0-114452, cell group 2 (G2/M) was -0.105.

**Q.** What about the score: coefficient of the linear model for the difference between TnH and Tn5 enrichment (scGET-seq, NIH-3T3), region chrUn JH584304:0-114452, cell group 3 (G1/S) of the same substance?
**A.** The score: coefficient of the linear model for the difference between TnH and Tn5 enrichment (scGET-seq, NIH-3T3), region chrUn JH584304:0-114452, cell group 3 (G1/S) was 0.329.

**Q.** What about the score: coefficient of the linear model for the difference between TnH and Tn5 enrichment (scGET-seq, NIH-3T3), region chrUn JH584304:0-114452, cell group 4 (G1/S) of the same substance?
**A.** Its score: coefficient of the linear model for the difference between TnH and Tn5 enrichment (scGET-seq, NIH-3T3), region chrUn JH584304:0-114452, cell group 4 (G1/S) is 0.067.

**Q.** And the score: coefficient of the linear model for the difference between TnH and Tn5 enrichment (scGET-seq, NIH-3T3), region chrUn JH584304:0-114452, cell group 5 (G2/M)?
**A.** The score: coefficient of the linear model for the difference between TnH and Tn5 enrichment (scGET-seq, NIH-3T3), region chrUn JH584304:0-114452, cell group 5 (G2/M) was -0.146.

**Q.** And the score: coefficient of the linear model for the difference between TnH and Tn5 enrichment (scGET-seq, NIH-3T3), region chrUn JH584304:0-114452, cell group 6 (G1/S)?
**A.** Its score: coefficient of the linear model for the difference between TnH and Tn5 enrichment (scGET-seq, NIH-3T3), region chrUn JH584304:0-114452, cell group 6 (G1/S) is 0.138.

**Q.** What about the score: coefficient of the linear model for the difference between TnH and Tn5 enrichment (scGET-seq, NIH-3T3), region chrUn JH584304:0-114452, cell group 7 (G2/M) of the same substance?
**A.** Its score: coefficient of the linear model for the difference between TnH and Tn5 enrichment (scGET-seq, NIH-3T3), region chrUn JH584304:0-114452, cell group 7 (G2/M) is -0.189.

**Q.** What about the score: coefficient of the linear model for the difference between TnH and Tn5 enrichment (scGET-seq, NIH-3T3), region chrUn JH584304:0-114452, cell group 8 (G2/M) of the same substance?
**A.** Its score: coefficient of the linear model for the difference between TnH and Tn5 enrichment (scGET-seq, NIH-3T3), region chrUn JH584304:0-114452, cell group 8 (G2/M) is -0.287.

**Q.** What about the score: coefficient of the linear model for the difference between TnH and Tn5 enrichment (scGET-seq, NIH-3T3), region chrUn JH584304:0-114452, cell group 9 (G1/S) of the same substance?
**A.** The score: coefficient of the linear model for the difference between TnH and Tn5 enrichment (scGET-seq, NIH-3T3), region chrUn JH584304:0-114452, cell group 9 (G1/S) was -0.523.

**Q.** What about the score: coefficient of the linear model for the difference between TnH and Tn5 enrichment (scGET-seq, NIH-3T3), region chrUn JH584304:0-114452, cell group 10 (G2/M) of the same substance?
**A.** Its score: coefficient of the linear model for the difference between TnH and Tn5 enrichment (scGET-seq, NIH-3T3), region chrUn JH584304:0-114452, cell group 10 (G2/M) is -0.073.

**Q.** What about the score: coefficient of the linear model for the difference between TnH and Tn5 enrichment (scGET-seq, NIH-3T3), region chrUn JH584304:0-114452, cell group 11 (G1/S) of the same substance?
**A.** The score: coefficient of the linear model for the difference between TnH and Tn5 enrichment (scGET-seq, NIH-3T3), region chrUn JH584304:0-114452, cell group 11 (G1/S) was -0.457.

**Q.** What about the score: coefficient of the linear model for the difference between TnH and Tn5 enrichment (scGET-seq, NIH-3T3), region chrUn JH584304:0-114452, cell group 12 (G1/S) of the same substance?
**A.** The score: coefficient of the linear model for the difference between TnH and Tn5 enrichment (scGET-seq, NIH-3T3), region chrUn JH584304:0-114452, cell group 12 (G1/S) was 0.163.

**Q.** What about the score: coefficient of the linear model for the difference between TnH and Tn5 enrichment (scGET-seq, NIH-3T3), region chrUn JH584304:0-114452, cell group 13 (G2/M) of the same substance?
**A.** The score: coefficient of the linear model for the difference between TnH and Tn5 enrichment (scGET-seq, NIH-3T3), region chrUn JH584304:0-114452, cell group 13 (G2/M) was -0.528.

**Q.** And the score: coefficient of the linear model for the difference between TnH and Tn5 enrichment (scGET-seq, NIH-3T3), region chrUn JH584304:0-114452, cell group 14 (G2/M)?
**A.** Its score: coefficient of the linear model for the difference between TnH and Tn5 enrichment (scGET-seq, NIH-3T3), region chrUn JH584304:0-114452, cell group 14 (G2/M) is -0.28.

**Q.** And the score: coefficient of the linear model for the difference between TnH and Tn5 enrichment (scGET-seq, NIH-3T3), region chrUn JH584304:0-114452, cell group 15 (G1/S)?
**A.** The score: coefficient of the linear model for the difference between TnH and Tn5 enrichment (scGET-seq, NIH-3T3), region chrUn JH584304:0-114452, cell group 15 (G1/S) was -0.47.

**Q.** What about the score: coefficient of the linear model for the difference between TnH and Tn5 enrichment (scGET-seq, NIH-3T3), region chrUn JH584304:0-114452, cell group 16 (G1/S) of the same substance?
**A.** Its score: coefficient of the linear model for the difference between TnH and Tn5 enrichment (scGET-seq, NIH-3T3), region chrUn JH584304:0-114452, cell group 16 (G1/S) is 0.576.

**Q.** What about the score: coefficient of the linear model for the difference between TnH and Tn5 enrichment (scGET-seq, NIH-3T3), region chrUn JH584304:0-114452, cell group 17 (G2/M) of the same substance?
**A.** Its score: coefficient of the linear model for the difference between TnH and Tn5 enrichment (scGET-seq, NIH-3T3), region chrUn JH584304:0-114452, cell group 17 (G2/M) is 0.468.

**Q.** What about the score: coefficient of the linear model for the difference between TnH and Tn5 enrichment (scGET-seq, NIH-3T3), region chrUn JH584304:0-114452, cell group 18 (G1/S) of the same substance?
**A.** The score: coefficient of the linear model for the difference between TnH and Tn5 enrichment (scGET-seq, NIH-3T3), region chrUn JH584304:0-114452, cell group 18 (G1/S) was -0.089.

**Q.** And the score: coefficient of the linear model for the difference between TnH and Tn5 enrichment (scGET-seq, NIH-3T3), region chrUn JH584304:0-114452, cell group 19 (G1/S)?
**A.** Its score: coefficient of the linear model for the difference between TnH and Tn5 enrichment (scGET-seq, NIH-3T3), region chrUn JH584304:0-114452, cell group 19 (G1/S) is -0.129.

**Q.** What about the score: coefficient of the linear model for the difference between TnH and Tn5 enrichment (scGET-seq, NIH-3T3), region chrUn JH584304:0-114452, cell group 20 (G2/M) of the same substance?
**A.** The score: coefficient of the linear model for the difference between TnH and Tn5 enrichment (scGET-seq, NIH-3T3), region chrUn JH584304:0-114452, cell group 20 (G2/M) was -0.011.

**Q.** And the score: coefficient of the linear model for the difference between TnH and Tn5 enrichment (scGET-seq, NIH-3T3), region chrUn JH584304:0-114452, cell group 21 (G2/M)?
**A.** Its score: coefficient of the linear model for the difference between TnH and Tn5 enrichment (scGET-seq, NIH-3T3), region chrUn JH584304:0-114452, cell group 21 (G2/M) is 0.138.

**Q.** TnH #3: 112aaCD (HP1α)-3×(TGS)-Tn5 was tested. Which score: coefficient of the linear model for the difference between TnH and Tn5 enrichment (scGET-seq, NIH-3T3), region chrUn JH584304:0-114452, cell group 0 (G1/S) did it give?
**A.** The score: coefficient of the linear model for the difference between TnH and Tn5 enrichment (scGET-seq, NIH-3T3), region chrUn JH584304:0-114452, cell group 0 (G1/S) was 0.198.

— patent US20240425848A1
